Assay results published in US9120865B2, “T cell epitopes of the Cyn d 1 allergen from bermuda grass pollen” (Circassia Limited, priority 2001, dated 2015).

How the values were obtained:
[1] = system: oligoclonal T cell blasts from Bermuda grass pollen-specific T cell lines; test: Oligoclonal T cell proliferation assay (3HTdR incorporation); type: cell-based, human; conditions: for number of patients in whom the peptide elicited proliferation: 13 Cyn d 1-reactive patients, SI≧2.5 considered significant
Source text: Bermuda grass pollen-specific T cell lines were isolated with the use of our well-established methods for thegeneration of allergen-specific T cell populations (O'Hehir, R. E., Young, D. B., Kay, A. B., Lamb, J. R., Immunology, 62:635-640, 1987; O'Hehir, R. E., Askonas, B. A., Lamb, J. R., Vol 3, Heidelberg:Springer-Verlag, p 120-138, 1993). Briefly, PBMC were separated from heparinized venous blood by density gradient centrifugation over Ficoll Paque (Pharmacia, Sweden). PBMC were initially stimulated for 1 week in 24-well plates (Costar, USA; 2.5×10^6 PBMC/well) with a previously determined optimal concentration of Bermuda grass pollen extract (50 μg/ml) for 7 days in complete medium (RPMI-1640 medium, Gibco Life Technologies, supplemented with 2 mmol/L L-glutamine, 100 IU/ml penicillin/streptomycin, and 5% screened, heat inactivated human AB^+ serum, Sigma Chemical Company, USA) at 37° C., 5% CO2. A two week line was established by restimulating the T cell blasts with Bermuda grass pollen extract in the presence of irradiated (3000 rads) autologous PBMC every 7 days, with the addition of interleukin-2 (5% vol/vol; Lymphocult-TLF, Biotest Folex, Frankfurt, Germany) every 3-4 days. In all experiments, T cells were rested for 7 days after the last addition of antigen and antigen presenting cells (APC) before use in proliferation assays. We have previously shown that CD4+ T cells are preferentially expanded in these cultures.
Oligoclonal T cell blasts (5×10^4/well) from the Bermuda grass pollen-specific T cell lines were stimulated in triplicate with Bermuda grass pollen extract (25, 50, 100 μg/ml), purified Cyn d 1 (2.5, 5, 10 μg/ml) and the Cyn d 1 peptides (1, 10 μg/ml) in the presence of an equal number of irradiated autologous PBMC as APC for 72 hours in 96-well round bottom plates (ICN Biomedicals, USA). Cultures of T cells and APC in the absence of antigen or with added IL-2 were included as negative and positive controls respectively. After 72 hours, cultures were pulsed with 1 μCi/well of tritiated methyl thymidine (^3HTdR; Amersham, USA) and harvested 16 hours later onto glass fibre filters. Proliferation as correlated with ^3HTdR incorporation was measured by liquid scintillation spectroscopy. Results are expressed as change in mean counters per minute above background (Acpm) or as a stimulation index (SI, cpm of antigen stimulated T cells divided by cpm of unstimulated T cells) to allow easier comparison between subjects with different background incorporation. Stimulation index values ≧2.5 are considered significant. Production of IL-5 and IFN-γ by Bermuda grass pollen-specific oligoclonal T cells

HDM-reactive T cells = test: Toxicity check by co-culture of antigens in the presence of IL-2; type: cell-based, human; conditions: data not shown
Protocol: (§1) Antigens • (i) Bermuda grass pollen. • Bermuda grass pollen was purchased from Greer Laboratories Inc. (Lenoir, N.C., USA) as dry, non-defatted pollen. One gram of pollen was extracted in 5 ml of 1 mM NH4HCO3 overnight at 4° C. on a rotating wheel. After centrifugation, the supernatant was dialyzed against PBS overnight. The extract was filtered through a 0.2 μm filter. The protein content of the extract was determined using the Bio-Rad Microassay (Bio-Rad, USA). • (ii) Cyn d 1. • Cyn d 1 was generated by the Bermuda grass pollen extract first undergoing an 80% ammonium sulphate precipitation. […] The protein content was determined using the Bio-Rad Microas say. • (iii) Peptides. • Synthetic peptides (20-mers overlapping by 11 or, for the two N-terminal peptides, 15 residues) spanning the entire length of the Cyn d 1 molecule were purchased from Mimotopes (Clayton, Australia; FIG. 2) (CD1 isoform, Smith et al., 1996, supra). • (iv) Mitogenicity and Toxicity. • Mitogenicity of Bermuda grass pollen, Cyn d 1 and Cyn d 1 peptides was excluded by culturing with oligoclonal house dust mite-reactive CD4^+ T cells in the presence of irradiated peripheral blood mononuclear cells (PBMC), and toxicity was excluded by co-culture of antigens with the HDM-reactive T cells in the presence of IL-2 (data not shown).

IgE = conditions: sera from Bermuda grass pollen-allergic patients; cited from earlier work
IFN-γ = test: Production of IFN-γ by Bermuda grass pollen-specific oligoclonal T cells (sandwich ELISA of culture supernatants); type: cell-based, human; conditions: pre-SIT; supernatants at 48 hours
Protocol: (§2) Production of IL-5 and IFN-γ by cultured oligoclonal T cells was assessed by harvesting supernatants from proliferation assays at 48 hours after stimulation, with replacement by an equal volume of complete medium, and measurement of cytokine levels by sandwich ELISA. White 96-well maxisorp ELISA plates (Nalgene NUNC, Denmark) were coated with rat anti-mouse/human IL-5 (PharMingen, USA) or mouse anti-human IFN-γ (endogen, USA) at 2 μg/ml and incubated overnight at 4° C. The plates were washed with 0.5% Tween 20/PBS and blocked with 1% BSA/PBS for 1 hour at room temperature. The plates were washed again and the culture supernatants from pooled triplicate assays added in duplicate to the wells. A standard curve was established using known concentrations of human recombinant IL-5 (PharMingen, USA) and IFN-γ (Endogen, USA). The plates were incubated with either 1 μg/ml biotinylated rat anti-human IL-5 (PharMingen, USA) or 0.5 μg/ml biotinylated mouse anti-human IFN-γ (Endogen, USA) for 1 hour at room temperature. After washing the plates, streptavidin-biotinylated horseradish peroxidase (Amersham, USA), at a dilution of 1:2000, was added to each well and incubated for 45 minutes at room temperature. […] The plates were read on a LumiCount microplate glow luminometer (Packard Instrument Company, USA). […]

IL-5 = test: Production of IL-5 by Bermuda grass pollen-specific oligoclonal T cells (sandwich ELISA of culture supernatants); type: cell-based, human; conditions: pre-SIT; supernatants at 48 hours
Protocol: as §2

[2] = system: oligoclonal house dust mite-reactive CD4+ T cells; test: Mitogenicity check with irradiated PBMC; type: cell-based, human; conditions: data not shown
Protocol: as §1

Q: Which “number of patients in whom the peptide elicited proliferation” value (“number of patients” below) ([1]; pre-immunotherapy) does the source give for “EGGAHLVQDDVIPANWKPDT (human) [Cyn d 1(217-236), synthetic 20-mer peptide of Cyn d 1, residues 217-236]” here?
A: Its value is 8 patients.

Q: With “LVQDDVIPANWKPDTVYTSK (human) [Cyn d 1(222-241), synthetic 20-mer peptide of Cyn d 1, residues 222-241]” as the molecule, how does the “number of patients” value ([1]; pre-immunotherapy) read?
A: Its value is 6 patients.

Q: With “MKSSWGAIWRIDPKKPLKGP (human) [Cyn d 1(190-209), synthetic 20-mer peptide of Cyn d 1, residues 190-209]” as the molecule, how does the “number of patients” value ([1]; pre-immunotherapy) read?
A: The value was 6 patients.

Q: Which “number of patients” value ([1]; pre-immunotherapy) does the source give for “PKDSDEFIPMKSSWGAIWRI (human) [Cyn d 1(181-200), synthetic 20-mer peptide of Cyn d 1, residues 181-200]” here?
A: Its value is 6 patients.

Q: Which “number of patients” value ([1]; pre-immunotherapy) does the source give for “SGKAFGAMAKKGQEDKLRKA (human) [Cyn d 1(109-128), synthetic 20-mer peptide of Cyn d 1, residues 109-128]” here?
A: The value was 8 patients.

B1: Cyn d 1: major allergen protein of Bermuda grass pollen, purified from the pollen extract by ammonium sulphate precipitation and G-75 Sephadex (protein)
chain: AIGDKPGPNITATYGNKWLEAKATFYGSNPRGAAPDDHGGACGYKDVDKPPFDGMTACGNEPIFKDGLGCGACYEIKCKEPVECSGEPVLVKITDKNYEHIAAYHFDLSGKAFGAMAKKGQEDKLRKAGELTLQFRRVKCKYPSGTKITFHIEKGSNDHYLALLVKYAAGDGNIVAVDIKPKDSDEFIPMKSSWGAIWRIDPKKPLKGPFSIRLTSEGGAHLVQDDVIPANWKPDTVYTSKLQFGA
modifications: human
notes: major allergen protein of Bermuda grass pollen, purified from the pollen extract by ammonium sulphate precipitation and G-75 Sephadex
Q: Which toxicity (HDM-reactive T cells) does the source give for B1 here?
A: The toxicity was “excluded”.

Q: What about the “change in proliferative responses / recognition” value ([1]; following SIT) of the same molecule?
A: Its value is “marked decrease”.

Q: And the “patients with decreased proliferation” value ([1]; following one year of SIT)?
A: The value was 11/13.

Q: And the “patients whose Bermuda grass pollen-specific T cell lines showed proliferative T cell responses” value ([1]; pre-immunotherapy, 2-week T cell lines from 14 patients)?
A: Its value is 13/14.

Q: And the predominant humoral recognition (IgE)?
A: The predominant humoral recognition was over 76%.

Q: And the “IFN-γ secreted in response to stimulation” value (IFN-γ)?
A: Its value is “High levels”.

Q: And the “IL-5 secreted in response to stimulation” value (IL-5)?
A: Its value is “High levels”.

Q: What about the Mitogenicity [2] of the same molecule?
A: Its Mitogenicity is “excluded”.
